We go through two substances from patent publication US20040247566A1.

The assay concerns the target human IL-9 receptor (human) (UniProt Q01113). Put plainly: cell-based or functional assay.
Chain of UniProt Q01113 (Q01113 41-521, chain 1 of 2): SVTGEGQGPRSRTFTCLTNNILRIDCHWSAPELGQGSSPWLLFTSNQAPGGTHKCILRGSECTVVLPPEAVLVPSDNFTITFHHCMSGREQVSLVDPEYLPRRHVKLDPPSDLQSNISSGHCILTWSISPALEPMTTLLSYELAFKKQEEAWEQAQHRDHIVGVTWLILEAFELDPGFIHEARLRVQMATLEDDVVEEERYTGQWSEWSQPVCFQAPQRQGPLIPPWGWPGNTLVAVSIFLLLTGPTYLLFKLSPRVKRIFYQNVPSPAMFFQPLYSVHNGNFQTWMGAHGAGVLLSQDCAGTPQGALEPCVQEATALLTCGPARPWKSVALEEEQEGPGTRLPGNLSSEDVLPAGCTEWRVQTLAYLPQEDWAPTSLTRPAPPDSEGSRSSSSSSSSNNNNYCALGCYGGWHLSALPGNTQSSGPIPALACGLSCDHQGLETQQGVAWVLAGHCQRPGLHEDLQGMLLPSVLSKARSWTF
Chain of UniProt Q01113 (P31785 23-369, chain 2 of 2, further chain): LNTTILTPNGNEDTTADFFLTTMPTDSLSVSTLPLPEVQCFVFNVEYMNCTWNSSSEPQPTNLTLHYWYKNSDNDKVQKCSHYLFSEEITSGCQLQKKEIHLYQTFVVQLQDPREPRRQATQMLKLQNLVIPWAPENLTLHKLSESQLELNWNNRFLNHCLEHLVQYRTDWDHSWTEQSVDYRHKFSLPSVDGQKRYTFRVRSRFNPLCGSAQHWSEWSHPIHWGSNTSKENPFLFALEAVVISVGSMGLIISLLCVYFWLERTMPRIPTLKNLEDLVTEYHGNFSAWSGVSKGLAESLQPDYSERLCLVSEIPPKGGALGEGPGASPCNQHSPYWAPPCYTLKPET

The substance “Amino-terminal Fc-fusion construct of the K126E/Q133K IL-9 mutein (Fc fusion)” registered an IC50, antagonism of IL-9-mediated eosinophil survival (7.14 nM wild-type IL-9) of 25.5 nM and an IC50, antagonism of IL-9 mediated Mo7e proliferation (0.357 nM wild-type IL-9) of 1.15 nM.
In turn, “Carboxy-terminal Fc-fusion construct of the K126E/Q133K IL-9 mutein (Fc fusion)” came in with an IC50, antagonism of IL-9-mediated eosinophil survival (7.14 nM wild-type IL-9) of 4.92 nM and an IC50, antagonism of IL-9 mediated Mo7e proliferation (0.357 nM wild-type IL-9) of 0.66 nM.
